This note sets out measurements from the Human Domainome abundance scans (Beltran et al. 2025).

To fix the notation:
B1: FERM and PDZ domain-containing protein 4, residues 75 to 154; numbered along this chain, Q14CM0 (parent)
chain: APRKVEMRRDPVLGFGFVAGSEKPVVVRSVTPGGPSEGKLIPGDQIVMINDEPVSAAPRERVIDLVRSCKESILLTVIQP

± gives the uncertainty stated by the source.

The variants in this series derive from B1. Nature of the series: abundance fitness (aPCA) (normalised: wild type 0, dead -1); higher = more abundant; growth selection in yeast, the domain comes from the species named. The following applies: Homo sapiens.
As for A19N, the abundance fitness is -0.286 ± 0.048. The same measure for A19G: -0.074 ± 0.021; for A19V: 0.003 ± 0.024. On to A19F, for which the abundance fitness is -0.016 ± 0.04. Then A19C, with -0.001 ± 0.037.

Regarding A19M, the abundance fitness was 0.003 ± 0.033.

A19W: the abundance fitness was -0.045 ± 0.03. For the variant A19R, the abundance fitness was -0.83 ± 0.034. Then A19S, with -0.066 ± 0.026. The same measure for A19H: -0.03 ± 0.046; for A19Y: -0.081 ± 0.043. Consider A19P, for which the abundance fitness is -0.029 ± 0.029. Consider A19K, for which the abundance fitness is -0.594 ± 0.045. Then A19E, with -0.075 ± 0.028; and A19L, with 0.045 ± 0.024; and A19I, with 0.021 ± 0.048. Then A19Q, with -0.084 ± 0.033; and A19T, with -0.005 ± 0.03. The same measure for V18C: -0.041 ± 0.032; for V18K: -0.118 ± 0.032. Regarding V18P, the abundance fitness was -1.03 ± 0.073. Then V18I, with -0.01 ± 0.038; and V18L, with -0.142 ± 0.025.

With V18H, the abundance fitness was -0.048 ± 0.048.

As for V18M, the abundance fitness is -0.075 ± 0.034.

For the variant V18S, the abundance fitness is -0.095 ± 0.027. The same measure for V18Y: -0.078 ± 0.046; for V18F: -0.255 ± 0.044. Regarding V18W, the abundance fitness was -0.38 ± 0.03. Then V18D, with -0.055 ± 0.035; and V18N, with -0.104 ± 0.049. For V18E, the abundance fitness was -0.019 ± 0.025.

On to V18T, for which the abundance fitness was -0.092 ± 0.028.

On to V18A, for which the abundance fitness was -0.058 ± 0.023. V18G: the abundance fitness was -0.112 ± 0.02. Then F17A, with -0.857 ± 0.041; and F17V, with -0.704 ± 0.031; and F17W, with -0.218 ± 0.026. Then F17K, with -0.842 ± 0.051; and F17I, with -0.322 ± 0.043; and F17Y, with -0.395 ± 0.052. F17N: the abundance fitness is -0.923 ± 0.098.

Turning to F17H, the abundance fitness is -0.806 ± 0.074. Then F17G, with -0.897 ± 0.032; and F17L, with -0.294 ± 0.026; and F17D, with -0.921 ± 0.077. Then F17T, with -0.887 ± 0.054; and F17C, with -0.637 ± 0.044; and F17E, with -0.832 ± 0.043. For the variant F17P, the abundance fitness was -0.916 ± 0.066. On to F17M, for which the abundance fitness was -0.381 ± 0.035.

As for G16K, the abundance fitness was -0.911 ± 0.066. The same measure for G16Y: -1.3 ± 0.27; for G16L: -1.15 ± 0.066; for G16S: -0.813 ± 0.039.

As for G16P, the abundance fitness is -0.977 ± 0.063.

Regarding G16A, the abundance fitness was -0.499 ± 0.027.

G16C: the abundance fitness was -0.956 ± 0.074. The same measure for G16R: -1.04 ± 0.042; for G16N: -0.677 ± 0.099; for G16H: -1.01 ± 0.14. The same measure for G16I: -1.32 ± 0.2; for G16Q: -0.889 ± 0.066. The same measure for G16D: -0.783 ± 0.057. On to G16T, for which the abundance fitness was -0.946 ± 0.061.

Regarding G16V, the abundance fitness was -1.08 ± 0.049. Consider G16F, for which the abundance fitness is -1.03 ± 0.13.

As to G20I, the abundance fitness was -0.051 ± 0.05. Then G20Y, with -0.067 ± 0.04; and G20E, with 0.01 ± 0.027; and G20N, with -0.089 ± 0.047.

Turning to G20Q, the abundance fitness was -0.03 ± 0.033.

For G20S, the abundance fitness is -0.002 ± 0.025. The same measure for G20L: -0.116 ± 0.025; for G20C: -0.094 ± 0.033. The same measure for G20T: -0.061 ± 0.029; for G20W: -0.105 ± 0.026; for G20K: -0.093 ± 0.032. On to G20F, for which the abundance fitness is -0.155 ± 0.045. Consider G20D, for which the abundance fitness was determined as 0.017 ± 0.032. Then G20H, with -0.029 ± 0.047.

Consider G14I, for which the abundance fitness is -0.719 ± 0.062.

Consider G14P, for which the abundance fitness is -0.963 ± 0.073.

For G14W, the abundance fitness is -1 ± 0.071. In the case of G14D, the abundance fitness is -0.025 ± 0.036.

For G14S, the abundance fitness is -0.273 ± 0.028. The same measure for G14N: -0.131 ± 0.044. The same measure for G14L: -0.677 ± 0.035.

In the case of G14K, the abundance fitness is -0.247 ± 0.04.

With G14H, the abundance fitness is -0.303 ± 0.043. Then G14R, with -0.496 ± 0.028. Then G14F, with -0.822 ± 0.077; and G14V, with -0.779 ± 0.039. The same measure for G14Y: -0.761 ± 0.068; for G14C: -0.502 ± 0.042; for G14M: -0.404 ± 0.04. As to G14T, the abundance fitness was -0.718 ± 0.044. Take P11G: the abundance fitness was -0.128 ± 0.021.

P11V: the abundance fitness is -0.247 ± 0.026. The same measure for P11T: -0.111 ± 0.029; for P11H: -0.208 ± 0.054; for P11M: -0.148 ± 0.031. Then P11R, with -0.123 ± 0.021.

P11N: the abundance fitness is -0.157 ± 0.043.

As to P11W, the abundance fitness was -0.405 ± 0.029. The same measure for P11I: -0.162 ± 0.042; for P11L: -0.143 ± 0.023. The same measure for P11Y: -0.391 ± 0.085. The same measure for P11F: -0.329 ± 0.046; for P11Q: -0.131 ± 0.03; for P11K: -0.09 ± 0.031. As for S21H, the abundance fitness is -0.028 ± 0.048. Then S21L, with -0.049 ± 0.026. On to S21I, for which the abundance fitness was -0.234 ± 0.059. As for S21P, the abundance fitness was -0.169 ± 0.031. Then S21A, with 0.005 ± 0.025; and S21F, with -0.021 ± 0.037. The same measure for S21G: 0.043 ± 0.022; for S21C: -0.047 ± 0.033; for S21W: -0.088 ± 0.027.

With S21D, the abundance fitness was -0.003 ± 0.036.

Take S21R: the abundance fitness is -0.082 ± 0.022. The same measure for S21N: -0.002 ± 0.047. Turning to S21K, the abundance fitness was -0.009 ± 0.033.

S21M: the abundance fitness is -0.033 ± 0.034. Take S21T: the abundance fitness is -0.12 ± 0.031.

In the case of S21V, the abundance fitness was -0.25 ± 0.026. The same measure for V12E: -0.068 ± 0.036; for V12S: -0.006 ± 0.031; for V12R: -0.023 ± 0.027.

Consider V12Y, for which the abundance fitness is -0.065 ± 0.049. The same measure for V12I: -0.055 ± 0.04. The same measure for V12H: 0.043 ± 0.051; for V12D: 0.004 ± 0.046; for V12L: -0.001 ± 0.029. The same measure for V12F: -0.089 ± 0.054; for V12N: 0.025 ± 0.056; for V12Q: 0 ± 0.037. As to V12W, the abundance fitness was -0.14 ± 0.038. Take V12M: the abundance fitness turned out to be 0.007 ± 0.041. Turning to V12K, the abundance fitness stood at 0.004 ± 0.04. Turning to V12G, the abundance fitness is -0.048 ± 0.025. As to V12P, the abundance fitness was -0.545 ± 0.046. Then V12T, with 0.049 ± 0.039; and V12C, with -0.056 ± 0.04; and L13V, with -0.003 ± 0.094.

L13S: the abundance fitness was -0.013 ± 0.094. For L13W, the abundance fitness is -0.046 ± 0.084. The same measure for L13F: -0.046 ± 0.17; for F15Y: -0.039 ± 0.043; for F15P: -0.857 ± 0.047. The same measure for F15A: -0.729 ± 0.034; for F15D: -0.781 ± 0.063; for F15L: -0.26 ± 0.025. For the variant F15H, the abundance fitness was -0.828 ± 0.089. Regarding F15I, the abundance fitness is -0.702 ± 0.087. The same measure for F15Q: -0.776 ± 0.048. On to F15T, for which the abundance fitness is -0.819 ± 0.053. Then F15E, with -0.805 ± 0.045; and F15M, with -0.392 ± 0.04; and F15K, with -0.905 ± 0.067. For F15R, the abundance fitness was -0.911 ± 0.036.

Take F15W: the abundance fitness was -0.057 ± 0.029. The same measure for F15S: -0.777 ± 0.035; for F15C: -0.758 ± 0.061; for F15N: -0.848 ± 0.094. The same measure for F15V: -0.815 ± 0.037.
